The source of these data is article PMC8505757 (Journal of Molecular Biology, 2021).

Non-standard residues stand in square brackets, D forms with d. pS = N[C@@H](COP(=O)(O)O)C(=O)O

This test deals with T1, 14-3-3σΔC (human, UniProt P31947 1-231).
T1 sequence (looked up): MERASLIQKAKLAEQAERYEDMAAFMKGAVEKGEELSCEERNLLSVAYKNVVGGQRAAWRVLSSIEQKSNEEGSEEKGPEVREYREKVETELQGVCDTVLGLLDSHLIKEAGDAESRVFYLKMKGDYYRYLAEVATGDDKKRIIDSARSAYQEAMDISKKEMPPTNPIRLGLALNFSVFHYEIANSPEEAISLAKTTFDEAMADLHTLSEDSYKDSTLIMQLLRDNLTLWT
The test is described as follows: crystal structure.

B1: Ataxin-1 pS776 peptide (AcNH-RKRRWpSAPESR-NH2) (peptide)
peptide: Ac-RKRRW[pS]APESR-NH2
SMILES: CC(=O)N[C@@H](CCCNC(=N)N)C(=O)N[C@@H](CCCCN)C(=O)N[C@@H](CCCNC(=N)N)C(=O)N[C@@H](CCCNC(=N)N)C(=O)N[C@@H](Cc1c[nH]c2ccccc12)C(=O)N[C@@H](COP(=O)(O)O)C(=O)N[C@@H](C)C(=O)N1CCC[C@H]1C(=O)N[C@@H](CCC(=O)O)C(=O)N[C@@H](CO)C(=O)N[C@@H](CCCNC(=N)N)C(N)=O
For B1, the binding result was “binds”.
